Measured values reported in the DeepSol protein solubility set.

Experiment: soluble on expression in E. coli; label from the status in PepcDB or PDB records

Soluble on expression in E. coli, soluble:
MSLSNERSSEKTLQNLKTQLLEDSSFLSKLREKITPHIDDHDIQKIIRDYLLTNPEIIIEMQLILQDKLEKQSAQNTQKQASIINSLKKQIFQSPYDAVLGNPNGKRVLVDFFDYNCGYCKISYPYIENLIKEYPDLRVIIKDLPILGSDSMAAHIVAYAFRKQFPEKYPQFYKELLTHQSRANEIKAIKIAVSLGADEKKLRNAIKDSSLQNAFKKNIQIASRLNITGTPSYIIGDKLLIGAVSEEILKEAIENMQEGHHHHHH
MSLALAVQNTDTIGVVVTDVTDAFFAILVKAVDKVAEAHQKTILIGIGYHHAEKEREAINTLLRKRCSSLVVHSKALSDDELSHYLNTVQGMVIINRVIKGYEHRCVSLDNQKGTYLATEMLIRYGHQHIAYIGSNHAIFDEVERRNGYLAALKDHNYLIIEQAITLNSPDFEGGEKAMIDLLSYNKNLTAVVAYNDSMAAGAISVLNENNISVPSQFSIIGFDDMPIARYLIPKLTTIRYPIDLMATYAAKLALSLTDEKIITPPVVQFNPTLVRRFSVESREGHHHHHH
MTSTFLYKFYPNYNAKNCGDRMPKLMLALDVLDRDRALKIVEDVKDYVDAIKVGYPLVLSTGTEIIKEIKKLCNKEVIADFKVADIPATNEKIAKITLKYADGIIVHGFVGEDSVKAVQDVAKKLNKKVIMVTEMSHPGAVQFLQPIADKLSEMAKKLKVDAIVAPSTRPERLKEIKEIAELPVITPGVGAQGGKIEDILNILDENDYVIVGRAIYQSQNPKEEAKKYKEMLNK
MSLKVIDFRFRPNTPEIISGIANSNMFRAACKAIGFEKRQPQPLEQIVEDLDKRGVVLSVISGRDSETTYGSPANNGSVLAFCRAYPERFIGFWGLDPHKGMAAVRELRHAVNELGMRGASIDPYLAHLRPDDARYYPIYAACCDLNVPVFITTAPPPQVAGAVMDYTDPRHVDIVARDFPELRIVMSHGGYPFVNEAIFACLRNANVYMDCSEYEQAPMAEAYIQAMNGIIQDKVVFASAHPFIEQADALEVYARMPLSDEARHKVMYANACKVLGIEGHHHHHH
MSLAEIAYITAKADLPFWDTVGKGVKAVAEANGYAFSELDSKLSAEMQLNNVRQAIDRRVAGIVISPTNSKSAEEALILARRAKIPVAIADIGASGGDYVSFVKSDNYRGAYDVGTELAKAMKAQNWASGAYGMVTIELSRKNGQDRTNGFRDAMKDAGFPREIVLRQMKDYSAEETYRYVKEMLAAHPGLRGFFIETDQPVAGALRAIREAGKEKQLLLVSFDAMPDVVRLLKSGALVAVGMQQPYLMGSSAAGALVSRLRGHPPAKEILVPVLVATGRNVDQLMPVAARTVFGKPLKEGHHHHHH

Soluble on expression in E. coli, not soluble:
MGSDKIHHHHHHMGQRIIIDPVTRIEGHAKISIHLDDHGDVAETRFHVTEFRGFERFCIGRPFWEMPGITARICGICPVSHLLASARAGDGILAVLIPPAAEKLRRLMNLAQIIQSHALSFFHLSGPDLMLGFDSDPAQRNIFGLIAADPDVARNGIRLRQFGQEVIEMLGGRKIHPAWAVPGGVRSGLSASSRDHIRAKLPEMLTIACDALGRLKQLSAKYQREIETFGVFPSLYLGMVGPGGRWMHYGGKLRVIDHTGNILIDELDPIDYRDVIGEAVEPWSYLKFPYIRALGYPQGMYRVGPLARINICTTMGAERADAELRELRQAVGPVIHGSFYYHHARLIEIIAALERMEVLVEDDDLLSTELRADAGVNRHEAVGVSEAPRGTLFHHYRVDEKGLITDVNLIIATGQNNLAINRTVGQIAQSYIRHGQFDEGILNRIEAGVRAYDPCLSCSTHAVGQMAMEVDLYNAQGELINRLSR
MGSDKIHHHHHHMDDYGYRALPDALGTTYGSYLSAKSASGRYTVYVGANDGMLHAFDAGMTADGSMDASGGLERFAYIPATALGHMGNLLLPSDPTNRTTEYEHRYYVDGPVVVGDANYAGSWKTVVVGAAGAGGRSIFALDVTNPSNFSTSSKLWEISDLDSSLSTAIRNNIGHVLGKPVIVPVKNAAGAVTWKAIFGNGYNSRNGKAVLFVVDIKTGAPAVTMIEATETGSTIAGSNGLGNIVVVDRWGGASQTDGVRDGYADTVYGADQKGAIWKFDLRSSAASVTVPFFTTRTSVESGQTYRQPITGGLVATAGDAGGVMLFFGTGSFSFESDPKDEAIQSLYGVNDTVRGAPLTTATRANLRGSTVVQDGDRTLSRAAAPANSQGWYVDLPAKERMVGSPSIASGIVFIPTYTPAVVSSGCKPDGANWLFGLDTRTGDGALMDARKGSPTGASFASRTAATPLTTSGNAPVKDVGVSAIPRLSPAESGSAPGGQACWMVVTAAGSGPLYIPYPCGRQSWRQVQ
MYEAKDYKSDQYVRWCPGCGDHAVVVTLQKAMAEIGIPPHQTAVMSGIGCSSRLPYYMNTYGFHTIHGRGAAIATGVKTANPELSVWLASGDGDSLAIGGNHFIHAVRRNIDINAVLFNNRIYGLTKGQYSPTSARGFVSKSSPYGTVEDPFIPAELVLGARGNFFARAIDVDMKTLQECFVASARHRGFAVTEVLVNCVIFNDGTHKDRSHKDIRADRTITLRHGEKMIFGANRDKGIVLEGLKLRAVTIGEDGYTLDDVLVHDKYEQDVTLHHLLAMMGYTDDSMPIALGVIRDVEAPCYDRAVEAQIEEIQQKNPIRKLHDLLIQGDVWEIK
MDNKIMLRNRYISKIQNKLRDLTDSINFLSEIDQAILNQTAGAGPGAAGPGAAPDRSSTINLQALREKLTTLNTDDGPTRTAIRDKTAAIQTSIRDINLKLEELMKNINTSAGKLADAVSAIPTPTDDLGAAGAAGAAGAAGAAAGAGAGAA
KKVVFFGVGAVGATFAEQFFNSKYDFKILCDNERKKRYLEEGFIINGKRYDFDYVTKDEYKQEADFIIIGLKYNNLKENIKELDGLVGKNTVIMSLLNGVDSEEIIGERFGIEKMVYSYVTNIDAKKINNNIIHTTNGIIVFGNKDNSEDRKTNIITEVFDDVNIEYTLSKDIQRDMWWKYMVNI
MALNRMRQAKGAVASLLQNAYVHRDQVSLISFRGKQAQVLLPPSQSVDRAKRELDVLPTGGGTPLASALLTGWETAKQARAKGITQIMFVMITDGRGNIPLGAAYDPNATKASKEELEKEVEALALSIQADGIASIVVDTQMNYLSRGEAPKLAQKLGGRYFYLPNAKAEQIVEAALS
MIPNFRGFNKKTKKMYSIDGFKSSERKIYRCSLADDEFRSGRLETFHFVEDNLVEKCNRPPERFYRQKQVRKSDRRLMARQ
MGSDKIHHHHHHLFSEAQMQKMGAESFASMNQEQKVSKDKALTTYVNCVAKRITDVLPGEAKPWELVLFESDQVNAFAVPGGFIGVYTGLLNVANTQDQLATVLGHEVAHVLAHHGNEQVSRAQMTGLGIQLADVALGAGGVSNKDLYMQALGLGAKVGYILPFGRTQESEADVMGLELMAKAGFDPSQSITLWQNMAKAGGAQGPELLSTHPSNERRIQDLQGLQGRVAPLYLAARETQLAKCIQPGKK
MGSDKIHHHHHHMDSYFLGVSLESLKSLPRQTNHLRLGLAMWSHYHWQDSVYGSTTKQAERLARYATIFNTVEGNTSFYATPNAQTMMNWLRATPDDFRFTFKLPQTITHQKQLQHCQQELLQFFQVMSPLAEKTGLWKIQLPAHFGPENLPALAQFLNQVPQGLTYGVEVRHAAFFAKGEAERALNRLLMDKQVNRIIMDSRPLFALPPANEAIIDTHKKKPRVPVHAIATANTPVVRFIGQPDDACSCTTRAARR
MSLSLLEVCADLCGQQTLSLFQSSPSVQQVSQTRDLQDIIGQQQGKRALEIAAAGNHNLLFLGPPGTGKTMLASRLCDLLPEMSDEEAMETASIASLTQQEINQHNWKLRPFRAPHHSSSMAALVGGGTIPRPGEISLAHNGLLFLDEMPEFERKVLDSLREPLESGEIVISRAQGKTRFPARFQLVGALNPSPTGYYEGSQARANPQSILRYLSRLSGPLLDRFDMSIEIPALPKGTLANGGDRGESTAAVRQRVWVARERMLARSGKVNALLQSREIEQYCPLLKADAEFLESALHRLGLSIRAYHRIIKVARTIADLQGEAQIARPHLAEALGYRAMDRLLKQLSAQNEGHHHHHH
MGSDKIHHHHHHLGRRGTADDEILLTYCPTLFIVGAEGRRFNNEAITELRTSMISPSGLVVVGHSNDMILVPTSMLLRLGISQTVVFRMVLEKILDFLNLEPVRQQEFADLVPIELNNVFDLDSALLKSDKALSGLAFASSTHSASSSAAPSPVGASGRRATVTGAGSEDIAKRRKESIILSQQIAAPSISGPPPPAPSPRTEDRFLAFQNLVASTITTGDDMPRRASMGASPRVIERGDFRDHRPPPPPPLPILQNPVATPMSQQPPLPSPAPPPPRGPVDPASISLI
MGSDKIHHHHHHMGVKFTLMGTTAGLGVPAFHCNCIACREARADPFWARTRSGAVLETGKENILIDASPDLSKQLLRERIQSVDYLFVTHWHYDHFGGIGDLEYYVKLERKRPVALFLPPSAVDDFAKAYPFLEEVFVIEPWEFGKSYAFEGIELTVLPARHSIETGGILLAGAKRAAYFTDTSGLPAPTARQLQGVDTLICDATFNGANWFPHSHMNWQEAIALGESIRAQHTVLTHLAMHYSTPITAAQLQEKLKDYAQVSLAYDGMVLTI
MGSDKIHHHHHHMRIQFGYVAMSMELANASPSKTMTATQFEKIEDHEAGLRKLERIAKTNLHNCLRLLKHNLAYQISFFRLSSKLVPLVNHPLTEGWKYELAIAEELQAVGEFASEHQMRIDFHPDHFVVLNSEAKEITRRSLQTLLYHYKLLKGMEIDPRHRCVLHVGGKKKGVEAGLEQFIENTASIPKSLLSMIMLENDDKSYTIDDVLYLGEKLAIPVVLDIHHHDVLHRSKSLQETWQRIVATWEDSPLPVKIHLSSPLSGEDDPRHHDYINADRFIAFLHEIGADAVDHLHVMIEAKKKDLALFQLMKDLAEYDEITVVSKSAVEFNP
MSSASAHHKKDLLDQVNNPVFLQDLRQQMIKFAVLQLASLPHAEDVVQDALASAFQHLDSFTGRAAFKTWVFAILKNKIIDLIRQKSRLVSMSELFKDEESELSIDALFDASGHWHKYEAPQAWLSPEEMMEQQDFWIIFDACLNHLPAKYAQVFMLREVIELNSSEICEKLELTVSHFNVLMYRSRTRLRECLENKWLLQEDCSC
MGSDKIHHHHHHMPLTNHTPEDRVQDIFDHIAPQYDQMNSVISLGTHHWWRQRVMQAMTLHAGDFALDVCCGTGDWTIALAQAVGPAGHVVGFDFSGVMLQHATTKVRQAQLDDRITLRQGDAMQLPYPDNYFNVVTIGFGLRNVPDATQVLREMARVVKPGGQVVCLETSQPTNPLVHAGWQVYFGHVVPLMGRLAHHYQAYNYLQSSTHHFVSAKELSRLFTAAGLTQVHYDLFNLGAAAVHWGRKPY
MGSDKIHHHHHHMADGTSLSIDAKPTEEFSVREVFGIDTDMKVKGFAEPTDRVPAIDPTYKFDPDTTLAILAGYGYNRRVMVQGYHGTGKSTHIEQVGARLNWPTVRVNLDSHISRIDLIGKDAIKLRDGKQVTEFHEGILPWALRNPVAIVFDEYDAGRADVMFVIQRVLETDGKLTLMDQNEIITPNPCFRLFATANTVGLGDTTGLYHGTQQINQAQMDRWSLVATLNYLRHDAEVNIVLAKCPHYNTETGRKTMNQMVTVADLTRTAFMNGELSTVMSPRTVINWAQNAEIFRDVGYAFRVSFLNKCDELERQTVAEFYQRCFDEELPESAASMSLG
